Source: paper PMC8881610

Biological target: human GLP-1R, wild-type, on cells (human) (UniProt P43220)
Sequence (P43220 24-463): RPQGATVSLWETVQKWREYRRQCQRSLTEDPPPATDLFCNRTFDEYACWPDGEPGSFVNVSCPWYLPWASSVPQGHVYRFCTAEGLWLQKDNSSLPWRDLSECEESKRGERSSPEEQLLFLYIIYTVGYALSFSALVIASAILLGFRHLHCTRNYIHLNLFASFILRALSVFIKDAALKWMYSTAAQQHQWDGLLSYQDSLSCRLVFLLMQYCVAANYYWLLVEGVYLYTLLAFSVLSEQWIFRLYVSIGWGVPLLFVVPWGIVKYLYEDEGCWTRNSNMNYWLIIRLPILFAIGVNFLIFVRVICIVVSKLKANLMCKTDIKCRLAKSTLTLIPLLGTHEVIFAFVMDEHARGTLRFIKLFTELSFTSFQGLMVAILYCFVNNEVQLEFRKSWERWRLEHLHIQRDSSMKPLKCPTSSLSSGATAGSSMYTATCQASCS

| Substance | cAMP response, EC50, 0.1% BSA | other |
| --- | --- | --- |
| non-acylated tirzepatide (peptide) | 4.66 pM | 0.9 pM |
| tirzepatide (peptide) |  | 3.05 pM |
